Reference: the supplement of paper PMC10065799, “High-throughput profiling of sequence recognition by tyrosine kinases and SH2 domains using bacterial peptide display” (eLife, 2023)

Legend:
[1] = tested on: AncSZ; assay: phosphorylation enrichment, bacterial display (enrichment ratio); higher = better substrate or ligand; peptides without Tyr show the background
[2] = target: EPHB1 (UniProt P54762); assay: as above
[3] = target: EPHB2 (UniProt P29323); assay: as above
[4] = target: FGFR1 (UniProt P11362); assay: as above
[5] = target: FGFR3 (UniProt P22607); assay: as above
[6] = tested on: Fer (mouse); assay: as above
[7] = target: Fes (UniProt P07332); assay: as above
[8] = target: Fyn (UniProt P06241); assay: as above
[9] = target: Hck (UniProt P08631); assay: as above
[10] = target: Jak2 (UniProt O60674); assay: as above
[11] = target: MERTK (UniProt Q12866); assay: as above
[12] = tested on: c-Abl (mouse); assay: as above
[13] = tested on: c-Src; assay: as above
[14] = target: Grb2 SH2 (UniProt P62993); assay: SH2 binding enrichment of the phosphorylated peptide, bacterial display (enrichment ratio); higher = better substrate or ligand; peptides without Tyr show the background
[15] = target: SHP2-C SH2; assay: as above
[16] = target: c-Src SH2; assay: as above
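Throughout, for SH2 binding enrichment of the phosphorylated peptide, bacterial display: peptide library displayed on the E. coli surface as eCPX fusions, selected cells deep-sequenced, score is each peptide's frequency after selection divided by its frequency in the input.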
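Throughout, for phosphorylation enrichment, bacterial display: 11-residue human phosphosite peptides and single-mutation variants displayed on the E. coli surface, counted by deep sequencing, each peptide's frequency after selection divided by its frequency in the unselected input library; frequency after pTyr selection over input frequency; kinase dosed for 20-30% of maximal phosphorylation in three min.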

Sequence of EPHB1 (P54762 whole entry, looked up): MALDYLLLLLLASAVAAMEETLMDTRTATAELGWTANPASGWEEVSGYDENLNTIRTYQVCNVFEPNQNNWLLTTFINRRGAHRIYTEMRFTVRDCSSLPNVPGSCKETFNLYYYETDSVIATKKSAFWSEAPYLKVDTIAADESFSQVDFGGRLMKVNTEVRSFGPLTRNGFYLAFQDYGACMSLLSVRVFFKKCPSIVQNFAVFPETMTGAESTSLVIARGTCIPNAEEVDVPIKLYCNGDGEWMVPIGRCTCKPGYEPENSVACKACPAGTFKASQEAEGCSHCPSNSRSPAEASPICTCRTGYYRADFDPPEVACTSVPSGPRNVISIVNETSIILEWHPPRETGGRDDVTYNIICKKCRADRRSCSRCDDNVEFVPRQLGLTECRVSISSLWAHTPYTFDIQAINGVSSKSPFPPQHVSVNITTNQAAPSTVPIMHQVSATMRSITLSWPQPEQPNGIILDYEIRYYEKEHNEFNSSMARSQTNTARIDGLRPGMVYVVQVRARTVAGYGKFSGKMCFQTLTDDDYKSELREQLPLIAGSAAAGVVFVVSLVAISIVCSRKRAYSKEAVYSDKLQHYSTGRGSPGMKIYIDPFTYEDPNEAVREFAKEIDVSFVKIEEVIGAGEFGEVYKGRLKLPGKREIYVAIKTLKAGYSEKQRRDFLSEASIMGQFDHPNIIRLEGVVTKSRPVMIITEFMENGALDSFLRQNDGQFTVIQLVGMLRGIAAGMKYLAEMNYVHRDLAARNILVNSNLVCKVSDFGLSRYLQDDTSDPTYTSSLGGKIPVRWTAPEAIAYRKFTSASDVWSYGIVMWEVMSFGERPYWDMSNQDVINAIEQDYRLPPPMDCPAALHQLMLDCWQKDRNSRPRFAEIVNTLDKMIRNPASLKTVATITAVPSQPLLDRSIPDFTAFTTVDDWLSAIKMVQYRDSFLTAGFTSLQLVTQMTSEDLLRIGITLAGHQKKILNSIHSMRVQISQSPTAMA
Sequence of FGFR3 (P22607 whole entry, looked up): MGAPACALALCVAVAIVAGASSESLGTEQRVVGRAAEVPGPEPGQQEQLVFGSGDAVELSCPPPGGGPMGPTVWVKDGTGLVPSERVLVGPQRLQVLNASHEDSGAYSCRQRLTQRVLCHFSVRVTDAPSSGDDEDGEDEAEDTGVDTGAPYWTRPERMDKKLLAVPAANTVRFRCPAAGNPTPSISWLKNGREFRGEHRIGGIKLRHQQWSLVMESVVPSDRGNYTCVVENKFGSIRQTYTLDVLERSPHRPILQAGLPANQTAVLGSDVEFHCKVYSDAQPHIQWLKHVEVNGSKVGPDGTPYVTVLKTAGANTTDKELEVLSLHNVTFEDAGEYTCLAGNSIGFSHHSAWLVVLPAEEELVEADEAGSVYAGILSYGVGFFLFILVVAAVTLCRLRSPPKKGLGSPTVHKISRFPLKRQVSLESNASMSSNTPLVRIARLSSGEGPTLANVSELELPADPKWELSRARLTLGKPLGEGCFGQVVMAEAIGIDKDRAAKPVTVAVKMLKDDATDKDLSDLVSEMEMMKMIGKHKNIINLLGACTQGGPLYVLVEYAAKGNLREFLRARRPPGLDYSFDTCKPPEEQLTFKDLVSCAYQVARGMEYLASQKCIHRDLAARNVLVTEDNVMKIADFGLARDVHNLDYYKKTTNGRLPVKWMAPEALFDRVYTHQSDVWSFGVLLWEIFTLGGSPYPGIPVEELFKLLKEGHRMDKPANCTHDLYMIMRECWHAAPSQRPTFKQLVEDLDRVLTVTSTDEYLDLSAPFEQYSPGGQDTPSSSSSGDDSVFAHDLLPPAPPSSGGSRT
Sequence of Fyn (P06241 whole entry, looked up): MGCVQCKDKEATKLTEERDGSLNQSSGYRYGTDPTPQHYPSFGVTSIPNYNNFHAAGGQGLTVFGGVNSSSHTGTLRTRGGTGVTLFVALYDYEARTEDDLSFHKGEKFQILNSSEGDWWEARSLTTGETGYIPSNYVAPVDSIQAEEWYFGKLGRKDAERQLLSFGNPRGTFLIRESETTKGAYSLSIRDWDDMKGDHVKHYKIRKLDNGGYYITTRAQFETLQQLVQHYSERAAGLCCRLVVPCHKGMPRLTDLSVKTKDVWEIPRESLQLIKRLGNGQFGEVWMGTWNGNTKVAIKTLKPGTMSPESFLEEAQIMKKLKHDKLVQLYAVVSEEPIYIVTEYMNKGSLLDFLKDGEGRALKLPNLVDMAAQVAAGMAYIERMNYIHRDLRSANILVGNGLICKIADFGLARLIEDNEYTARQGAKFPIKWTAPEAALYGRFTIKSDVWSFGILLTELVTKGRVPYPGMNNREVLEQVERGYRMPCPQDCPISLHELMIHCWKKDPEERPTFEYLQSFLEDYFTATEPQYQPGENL
Sequence of Hck (P08631 whole entry, looked up): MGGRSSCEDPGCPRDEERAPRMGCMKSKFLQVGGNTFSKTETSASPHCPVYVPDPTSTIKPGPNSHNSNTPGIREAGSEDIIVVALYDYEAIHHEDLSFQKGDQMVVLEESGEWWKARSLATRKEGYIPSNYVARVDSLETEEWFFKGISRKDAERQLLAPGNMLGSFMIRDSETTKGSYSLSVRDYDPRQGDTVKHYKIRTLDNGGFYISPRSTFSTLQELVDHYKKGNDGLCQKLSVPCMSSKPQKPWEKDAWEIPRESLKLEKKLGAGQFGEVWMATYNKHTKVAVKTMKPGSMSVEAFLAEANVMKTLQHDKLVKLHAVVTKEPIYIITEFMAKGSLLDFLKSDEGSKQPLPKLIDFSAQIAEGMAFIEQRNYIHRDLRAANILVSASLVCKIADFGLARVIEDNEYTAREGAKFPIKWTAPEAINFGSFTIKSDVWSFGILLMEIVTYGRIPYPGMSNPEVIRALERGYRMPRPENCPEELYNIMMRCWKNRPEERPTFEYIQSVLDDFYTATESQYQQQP
Sequence of Fes (P07332 whole entry, looked up): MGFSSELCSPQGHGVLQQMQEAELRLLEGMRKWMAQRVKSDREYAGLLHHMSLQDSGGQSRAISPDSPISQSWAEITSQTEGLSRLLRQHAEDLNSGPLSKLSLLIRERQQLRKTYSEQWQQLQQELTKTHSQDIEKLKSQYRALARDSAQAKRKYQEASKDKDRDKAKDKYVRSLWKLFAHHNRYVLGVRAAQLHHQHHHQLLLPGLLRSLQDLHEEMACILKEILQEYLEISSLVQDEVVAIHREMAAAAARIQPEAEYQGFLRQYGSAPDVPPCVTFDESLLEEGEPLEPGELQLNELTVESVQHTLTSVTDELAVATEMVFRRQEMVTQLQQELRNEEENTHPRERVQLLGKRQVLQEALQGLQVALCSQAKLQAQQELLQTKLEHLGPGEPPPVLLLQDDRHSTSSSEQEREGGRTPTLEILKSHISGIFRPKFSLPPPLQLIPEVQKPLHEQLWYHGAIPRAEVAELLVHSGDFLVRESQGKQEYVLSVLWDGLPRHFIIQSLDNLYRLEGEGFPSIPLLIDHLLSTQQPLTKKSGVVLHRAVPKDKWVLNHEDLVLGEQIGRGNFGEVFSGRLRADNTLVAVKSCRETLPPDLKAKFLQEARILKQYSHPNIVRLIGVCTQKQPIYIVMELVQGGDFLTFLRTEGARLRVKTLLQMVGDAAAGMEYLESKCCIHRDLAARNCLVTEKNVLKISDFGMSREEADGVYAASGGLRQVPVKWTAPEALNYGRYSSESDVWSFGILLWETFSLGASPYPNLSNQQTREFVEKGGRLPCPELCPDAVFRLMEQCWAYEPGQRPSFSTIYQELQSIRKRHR
Sequence of FGFR1 (P11362 whole entry, looked up): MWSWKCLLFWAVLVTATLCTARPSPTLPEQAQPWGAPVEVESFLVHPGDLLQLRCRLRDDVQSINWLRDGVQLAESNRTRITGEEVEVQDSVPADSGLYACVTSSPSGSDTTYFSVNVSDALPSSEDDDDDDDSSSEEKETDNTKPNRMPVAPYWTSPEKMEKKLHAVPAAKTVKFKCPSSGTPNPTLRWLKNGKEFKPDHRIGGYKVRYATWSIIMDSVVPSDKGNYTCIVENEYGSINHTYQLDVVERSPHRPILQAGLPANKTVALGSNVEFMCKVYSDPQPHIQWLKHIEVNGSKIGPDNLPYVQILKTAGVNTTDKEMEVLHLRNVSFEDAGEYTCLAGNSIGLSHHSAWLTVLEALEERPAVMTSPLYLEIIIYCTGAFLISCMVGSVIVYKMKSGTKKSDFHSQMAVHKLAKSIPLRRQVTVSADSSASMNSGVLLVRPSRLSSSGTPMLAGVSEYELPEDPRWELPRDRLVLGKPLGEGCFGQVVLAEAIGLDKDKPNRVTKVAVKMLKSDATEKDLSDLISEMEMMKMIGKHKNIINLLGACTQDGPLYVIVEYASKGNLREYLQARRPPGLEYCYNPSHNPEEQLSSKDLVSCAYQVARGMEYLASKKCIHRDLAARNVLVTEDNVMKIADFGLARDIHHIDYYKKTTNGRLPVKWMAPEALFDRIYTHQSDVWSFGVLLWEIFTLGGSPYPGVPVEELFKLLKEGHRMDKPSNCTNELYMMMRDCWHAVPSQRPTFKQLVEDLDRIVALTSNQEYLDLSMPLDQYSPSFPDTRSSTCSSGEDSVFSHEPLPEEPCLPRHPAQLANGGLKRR
Sequence of Grb2 SH2 (P62993 whole entry, looked up): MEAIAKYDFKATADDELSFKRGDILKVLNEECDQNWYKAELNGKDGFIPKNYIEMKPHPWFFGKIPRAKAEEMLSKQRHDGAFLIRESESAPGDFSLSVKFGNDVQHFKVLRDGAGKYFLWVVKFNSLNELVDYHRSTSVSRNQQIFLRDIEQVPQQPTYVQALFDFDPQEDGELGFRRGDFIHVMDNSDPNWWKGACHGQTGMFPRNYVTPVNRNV

| Sequence | phosphorylation enrichment [1] | phosphorylation enrichment [2] | phosphorylation enrichment [3] | phosphorylation enrichment [4] | phosphorylation enrichment [5] | phosphorylation enrichment [6] | phosphorylation enrichment [7] | phosphorylation enrichment [8] | phosphorylation enrichment [9] | phosphorylation enrichment [10] | phosphorylation enrichment [11] | phosphorylation enrichment [12] | phosphorylation enrichment [13] | SH2 binding enrichment [14] | SH2 binding enrichment [15] | SH2 binding enrichment [16] |
| --- | --- | --- | --- | --- | --- | --- | --- | --- | --- | --- | --- | --- | --- | --- | --- | --- |
| WSQAMYPDLGP [STARD8_Y330_R327Q] | 1.06 | 0.476 | 0.636 | 0.493 | 0.583 | 0.475 | 0.921 | 0.47 | 0.486 | 0.765 | 0.393 | 0.648 | 0.47 | 1.07 | 0.766 | 0.774 |
| NCLREYVAGRF [CRB1_Y711] | 0.702 | 0.469 | 0.554 | 0.53 | 0.51 | 0.417 | 0.891 | 0.487 | 0.411 | 0.91 | 0.461 | 0.651 | 0.555 | 0.915 | 0.684 | 0.531 |
| TVMGLYQKSSL [MYH7_Y609_V606M] | 0.824 | 0.657 | 0.516 | 0.412 | 0.618 | 0.527 | 0.797 | 0.404 | 0.573 | 0.707 | 0.601 | 0.525 | 0.563 | 0.84 | 1.13 | 0.377 |
| EEQFFYEKAIL [BCCIP_Y257_E254Q] | 1.11 | 0.434 | 0.48 | 0.442 | 0.588 | 3.96 | 0.999 | 0.466 | 0.654 | 0.828 | 0.502 | 0.748 | 0.608 | 1.04 | 0.795 | 0.53 |
| TLSGIYQYNIA [FOXL2_Y81_I84N] | 1.32 | 1.82 | 1.15 | 0.752 | 0.701 | 13.1 | 0.963 | 4.61 | 4.79 | 0.951 | 9.86 | 1.06 | 6.54 | 0.817 | 1.07 | 1.33 |
| KRISCYEASFQ [PFKFB3_Y194_YF] | 0.973 | 0.58 | 0.536 | 0.523 | 0.85 | 0.593 | 1.11 | 0.452 | 0.49 | 1.06 | 0.527 | 0.88 | 0.568 | 0.64 | 0.53 | 0.502 |
| RDHYGYRQSVT [CD55_Y245] | 1.22 | 0.883 | 0.472 | 0.747 | 0.339 | 0.748 | 0.794 | 0.866 | 0.806 | 0.455 | 0.774 | 0.794 | 0.822 | 0.98 | 0.775 | 0.484 |
| SSAAGYACLAF [MVD_Y131_YF] | 0.948 | 0.536 | 0.455 | 0.446 | 0.763 | 0.493 | 1.07 | 0.428 | 0.585 | 0.919 | 0.538 | 0.946 | 0.494 | 0.732 | 10 | 1.55 |
| MSSHHCDFKKF [ZNF445_Y428_Y428C_YF] | 0.47 | 0.401 | 0.393 | 0.437 | 0.417 | 0.43 | 0.487 | 0.392 | 0.452 | 0.519 | 0.474 | 0.529 | 0.415 | 0.811 | 0.759 | 0.449 |
| HNQDGYSYLSR [LDLR_Y845_P848L] | 0.478 | 0.527 | 0.889 | 0.879 | 0.658 | 0.522 | 0.681 | 0.624 | 0.793 | 0.679 | 0.719 | 0.551 | 0.554 | 0.698 | 2.08 | 11.7 |
| ERWLKYFPNEQ [HS3ST5_Y244_I247N] | 1.09 | 0.664 | 0.584 | 0.438 | 0.632 | 0.459 | 1.12 | 0.62 | 0.482 | 0.927 | 0.38 | 0.518 | 0.419 | 0.95 | 1.24 | 0.707 |
| GNLLIYTEFGK [HGD_Y166] | 1.28 | 1.81 | 1.13 | 0.56 | 0.731 | 0.54 | 1.28 | 7.36 | 4.65 | 1.14 | 4.24 | 3.12 | 5.93 | 0.687 | 0.668 | 0.471 |
| LLSVAYKNVVG [YWHAG_Y49] | 1.02 | 0.645 | 0.64 | 0.589 | 0.709 | 0.551 | 0.935 | 0.585 | 0.665 | 0.649 | 0.454 | 1.05 | 0.418 | 0.932 | 0.518 | 0.434 |
| ARLEFCENEKK [IRS1_Y47_Y47C_YF] | 0.983 | 0.636 | 0.575 | 0.581 | 0.926 | 0.568 | 1.23 | 0.515 | 0.402 | 1.02 | 0.434 | 0.868 | 0.484 | 0.743 | 0.686 | 0.626 |
| PGVDIYISPNM [PADI3_Y51] | 1.64 | 1.17 | 0.973 | 1.67 | 1.11 | 0.814 | 1.8 | 1.02 | 1.38 | 1.75 | 0.534 | 1.68 | 0.894 | 0.728 | 0.592 | 0.366 |
| QQPGPYDRPGA [HNRNPH2_Y210_R206Q] | 0.683 | 0.528 | 0.493 | 0.66 | 0.619 | 0.551 | 1.39 | 0.565 | 0.662 | 0.643 | 0.599 | 0.567 | 0.577 | 0.905 | 0.689 | 0.857 |
| WASSSYRETPS [SORBS1_Y79_R74W] | 0.57 | 0.411 | 0.353 | 0.438 | 0.444 | 0.389 | 0.57 | 0.402 | 0.409 | 0.45 | 0.39 | 0.391 | 0.362 | 0.779 | 0.846 | 0.467 |

| Sequence | phosphorylation enrichment [1] | phosphorylation enrichment [2] | phosphorylation enrichment [3] | phosphorylation enrichment [4] | phosphorylation enrichment [5] | phosphorylation enrichment [6] | phosphorylation enrichment [7] | phosphorylation enrichment [8] | phosphorylation enrichment [9] | phosphorylation enrichment [10] | phosphorylation enrichment [11] | phosphorylation enrichment [12] | phosphorylation enrichment [13] | SH2 binding enrichment [14] | SH2 binding enrichment [15] | SH2 binding enrichment [16] |
| --- | --- | --- | --- | --- | --- | --- | --- | --- | --- | --- | --- | --- | --- | --- | --- | --- |
| HGTKVYIDPFT [EPHB4_Y590] | 0.602 | 0.788 | 0.66 | 0.711 | 0.688 | 0.426 | 0.705 | 0.601 | 0.628 | 0.815 | 1.03 | 0.725 | 0.49 | 1.21 | 1.62 | 0.788 |
| LIHTKYPQLLP [AHCY_Y143] | 0.808 | 0.642 | 0.562 | 0.639 | 0.573 | 0.395 | 0.81 | 0.449 | 0.428 | 0.679 | 0.6 | 0.575 | 0.379 | 0.54 | 0.725 | 0.42 |
| QLATEYVFSDF [PANX1_Y10] | 0.996 | 0.615 | 0.62 | 0.716 | 1.21 | 0.424 | 1.85 | 0.762 | 0.703 | 1.57 | 0.617 | 0.907 | 0.837 | 0.895 | 0.679 | 0.511 |
| DHAGEYGAEAL [HBA1_Y25_A20D] | 0.86 | 0.426 | 0.569 | 0.509 | 0.621 | 0.403 | 0.892 | 0.427 | 0.495 | 0.675 | 0.343 | 0.546 | 0.405 | 0.825 | 1.11 | 0.506 |
| LEAVSYSSPFA [RNLS_Y190_R193P_YF] | 1.23 | 0.736 | 0.908 | 1.12 | 0.661 | 0.396 | 1.06 | 0.791 | 0.615 | 0.952 | 0.658 | 2.62 | 0.652 | 0.911 | 3.49 | 1.26 |
| ISIFHYAKGQP [MPZ_Y82] | 1.04 | 0.69 | 0.481 | 0.456 | 0.68 | 0.434 | 1.03 | 0.463 | 0.466 | 0.855 | 0.379 | 0.644 | 0.35 | 0.874 | 0.739 | 0.7 |
| MGRVNYGAYIN [GLB1_Y485] | 0.701 | 0.504 | 0.486 | 0.383 | 0.499 | 0.34 | 0.617 | 0.463 | 0.395 | 0.54 | 0.315 | 0.587 | 0.393 | 4.77 | 1.19 | 1.22 |
| LEAFQYIGESQ [MSH2_Y856_E853A] | 1.21 | 0.711 | 0.585 | 0.614 | 0.938 | 0.505 | 1.58 | 0.625 | 0.413 | 1.46 | 0.479 | 0.906 | 0.659 | 0.979 | 0.682 | 0.506 |
| REVPVYIGEDS [SYNM_Y460] | 1.05 | 0.391 | 0.547 | 0.661 | 0.909 | 0.499 | 1.36 | 0.402 | 0.659 | 1.02 | 0.426 | 0.595 | 0.481 | 0.707 | 0.625 | 0.691 |
| CTNPQYLAAGS [RABL3_Y185_R184Q] | 0.724 | 0.487 | 0.505 | 0.465 | 0.609 | 0.47 | 0.849 | 0.537 | 0.505 | 0.778 | 0.424 | 0.602 | 0.409 | 0.885 | 0.721 | 0.589 |
| AHAGEHGAEAL [HBA1_Y25_Y25H] | 0.521 | 0.378 | 0.439 | 0.476 | 0.451 | 0.419 | 0.703 | 0.354 | 0.479 | 0.491 | 0.382 | 0.454 | 0.461 | 0.782 | 0.763 | 0.484 |
| IQRSLYDCPAS [PDGFRA_Y762_R764C] | 1.38 | 2.37 | 2.5 | 0.592 | 0.706 | 4.18 | 0.973 | 0.732 | 2.25 | 0.825 | 3.85 | 1.47 | 0.81 | 0.783 | 1.04 | 2.57 |
| PLRAYYLIARV [HLCS_Y635_D634Y] | 1.17 | 0.543 | 0.726 | 1.2 | 1.31 | 0.732 | 1.12 | 0.571 | 0.415 | 1.71 | 0.636 | 0.865 | 0.362 | 1.67 | 1.69 | 1.62 |
| EFENSYIFDIN [GAB1_Y83] | 1.25 | 0.435 | 0.58 | 0.478 | 0.695 | 0.489 | 1.16 | 0.519 | 0.488 | 1.16 | 0.419 | 0.501 | 0.432 | 0.82 | 0.854 | 0.581 |
| LFMGDYVGRGF [PPP2CA_Y86_D88G_YF] | 1.38 | 2.4 | 1.48 | 0.919 | 0.739 | 0.412 | 1.04 | 1.5 | 1.53 | 3.61 | 0.456 | 1.1 | 2.31 | 1.01 | 0.817 | 0.487 |
| FTTIHYNFMCN [TP53_Y234_C229Y_YF] | 1.03 | 0.74 | 0.65 | 0.682 | 0.887 | 0.565 | 1.4 | 0.496 | 0.63 | 1.24 | 0.495 | 0.987 | 0.455 | 1.08 | 0.658 | 0.634 |
